“And” between values parts separate entries of the source, which are not always exact repeats. Identical values can stand only once.
What was measured:
[1] = molecular target: S sensors L15 + S25: S(aa 328-533)-15aa-LgBiT and S(aa 328-533)-25aa-SmBiT (SARS-CoV-2)
[2] = molecular target: N sensors LC + SC: N(aa 44-180)-10aa-LgBiT and N(aa 44-180)-10aa-SmBiT (SARS-CoV-2); assay: spLUC, antibody dilution 100000
[3] = molecular target: N sensors LC2 + SC2: N(aa 44-257)-LgBiT and N(aa 44-257)-SmBiT (SARS-CoV-2); assay: spLUC, antibody dilution 100000
[4] = molecular target: N sensors LN + SN: LgBiT-10aa-N(aa 44-257) and SmBiT-10aa-N(aa 44-257) (SARS-CoV-2); assay: spLUC, antibody dilution 100000
[5] = molecular target: N sensors LC + SC: N(aa 44-180)-10aa-LgBiT and N(aa 44-180)-10aa-SmBiT (SARS-CoV-2); assay: spLUC, antibody dilution 10000
[6] = molecular target: N sensors LC2 + SC2: N(aa 44-257)-LgBiT and N(aa 44-257)-SmBiT (SARS-CoV-2); assay: spLUC, antibody dilution 10000
[7] = molecular target: N sensors LC + SC: N(aa 44-180)-10aa-LgBiT and N(aa 44-180)-10aa-SmBiT (SARS-CoV-2); assay: spLUC, antibody dilution 100
[8] = molecular target: N sensors LC2 + SC2: N(aa 44-257)-LgBiT and N(aa 44-257)-SmBiT (SARS-CoV-2); assay: spLUC, antibody dilution 100
[9] = molecular target: N sensors LN + SN: LgBiT-10aa-N(aa 44-257) and SmBiT-10aa-N(aa 44-257) (SARS-CoV-2); assay: spLUC, antibody dilution 100
[10] = molecular target: N sensors LC + SC: N(aa 44-180)-10aa-LgBiT and N(aa 44-180)-10aa-SmBiT (SARS-CoV-2); assay: spLUC, antibody dilution 1000
[11] = molecular target: N sensors LC2 + SC2: N(aa 44-257)-LgBiT and N(aa 44-257)-SmBiT (SARS-CoV-2); assay: spLUC, antibody dilution 1000
[12] = molecular target: N sensors LN + SN: LgBiT-10aa-N(aa 44-257) and SmBiT-10aa-N(aa 44-257) (SARS-CoV-2); assay: spLUC, antibody dilution 1000
[13] = molecular target: N sensors LC + SC: N(aa 44-180)-10aa-LgBiT and N(aa 44-180)-10aa-SmBiT (SARS-CoV-2); assay: spLUC, antibody dilution 1000000
[14] = molecular target: N sensors LC2 + SC2: N(aa 44-257)-LgBiT and N(aa 44-257)-SmBiT (SARS-CoV-2); assay: spLUC, antibody dilution 1000000
[15] = molecular target: N sensors LN + SN: LgBiT-10aa-N(aa 44-257) and SmBiT-10aa-N(aa 44-257) (SARS-CoV-2); assay: spLUC, antibody dilution 1000000

| Substance | percent of signal competed [1] [%] | luminescence signal [2] | luminescence signal [3] | luminescence signal [4] | luminescence signal [5] | luminescence signal [6] | luminescence signal [7] | luminescence signal [8] | luminescence signal [9] | luminescence signal [10] | luminescence signal [11] | luminescence signal [12] | luminescence signal [13] | luminescence signal [14] | luminescence signal [15] |
| --- | --- | --- | --- | --- | --- | --- | --- | --- | --- | --- | --- | --- | --- | --- | --- |
| C105 Fab | 90 |  |  |  |  |  |  |  |  |  |  |  |  |  |  |
| rabbit polyclonal anti-N protein antibody (Sino Biological, Cat#: 40588-T62-50) |  | 811 and 592 | 475 and 327 | 146 and 145 | 1030 and 694 | 563 and 505 | 10900 and 10200 | 9060 and 9420 | 1970 and 2200 | 4000 and 3560 | 2910 and 2790 | 677 and 684 | 598 and 600 | 332 and 281 | 138 and 104 |

Reference: patent US20230296621A1
